From US20230129812A1, “COMPOSITIONS AND METHODS FOR TREATING PULMONARY HYPERTENSION” (Acceleron Pharma Inc., priority 2020, published 2023)

Experiments:
[1] = molecular target: T1, GDF3 (Homo sapiens, UniProt Q9NR23); assay: Biacore ligand binding profile, ActRIIA-Fc:ALK4-Fc heterodimer vs homodimers, anti-Fc capture (Example 17, Table 14); settings: ligand GDF3, Table 14
T1 sequence (Q9NR23 251-364): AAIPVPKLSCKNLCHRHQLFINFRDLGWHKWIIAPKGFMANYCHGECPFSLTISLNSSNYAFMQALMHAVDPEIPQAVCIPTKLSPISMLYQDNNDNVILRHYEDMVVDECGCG
Method: (§1) A Biacore™-based binding assay was used to compare ligand binding selectivity of the ActRIIA-Fc:ALK4-Fc heterodimeric complex described above with that of ActRIIA-Fc and ALK4-Fc homodimeric complexes. The ActRIIA-Fc:ALK4-Fc heterodimer, ActRIIA-Fc homodimer, and ALK4-Fc homodimer were independently captured onto the system using an anti-Fc antibody. Ligands were injected and allowed to flow over the captured receptor protein. Results are summarized in Table 14 below, in which ligand off-rates (kd) most indicative of effective ligand traps are denoted in bold.

[2] = molecular target: T2, activin AB (Homo sapiens, UniProt P08476+P09529); assay: as above; settings: for ka / kd: ligand Activin AB, Table 14
T2 sequence (P08476 311-426): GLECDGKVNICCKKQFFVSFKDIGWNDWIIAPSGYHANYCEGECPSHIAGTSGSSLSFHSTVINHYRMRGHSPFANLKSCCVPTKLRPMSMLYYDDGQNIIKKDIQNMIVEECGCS
T2 sequence (P09529 293-407): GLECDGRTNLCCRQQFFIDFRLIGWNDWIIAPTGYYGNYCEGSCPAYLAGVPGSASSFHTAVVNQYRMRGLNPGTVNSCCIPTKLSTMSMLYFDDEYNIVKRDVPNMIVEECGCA
Method: as §1

[3] = molecular target: T3, BMP9 (Homo sapiens, UniProt Q9UK05); assay: as above; settings: ligand BMP9, Table 14
T3 sequence (Q9UK05 320-429): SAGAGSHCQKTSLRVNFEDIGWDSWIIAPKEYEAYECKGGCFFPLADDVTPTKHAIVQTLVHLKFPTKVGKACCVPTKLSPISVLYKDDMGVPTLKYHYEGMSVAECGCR
Method: as §1

[4] = molecular target: T4, BMP10 (Homo sapiens, UniProt O95393); assay: as above
T4 sequence (O95393 317-424): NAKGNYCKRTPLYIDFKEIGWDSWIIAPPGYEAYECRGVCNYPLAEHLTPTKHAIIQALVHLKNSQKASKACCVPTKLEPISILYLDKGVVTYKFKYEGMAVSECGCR
Method: as §1

[5] = molecular target: T5, activin AC (Homo sapiens, UniProt P08476+P55103); assay: as above; settings: for ka / kd: ligand Activin AC, Table 14
T5 sequence (P08476 311-426): T2 sequence (P08476 311-426)
T5 sequence (P55103 237-352): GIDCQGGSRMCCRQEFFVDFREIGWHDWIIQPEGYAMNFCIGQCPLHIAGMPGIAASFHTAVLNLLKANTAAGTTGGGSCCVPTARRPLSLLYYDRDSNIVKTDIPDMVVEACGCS
Method: as §1

[6] = molecular target: T6, GDF11 (Homo sapiens, UniProt O95390); assay: as above; settings: for ka / kd: ligand GDF11, Table 14
T6 sequence (O95390 299-407): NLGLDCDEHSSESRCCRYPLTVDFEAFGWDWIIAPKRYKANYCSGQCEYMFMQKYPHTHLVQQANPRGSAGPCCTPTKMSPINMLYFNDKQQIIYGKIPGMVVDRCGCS
Method: as §1

[7] = molecular target: T7, activin A (Homo sapiens, UniProt P08476); assay: as above; settings: for ka / kd: ligand Activin A, Table 14
T7 sequence (P08476 311-426): T2 sequence (P08476 311-426)
Method: as §1

[8] = molecular target: T8, activin B (Homo sapiens, UniProt P09529); assay: as above; settings: for activin B binding: Example 17; for ka / kd: ligand Activin B, Table 14
T8 sequence (P09529 293-407): T2 sequence (P09529 293-407)
Method: as §1

[9] = molecular target: T9, BMP7 (Homo sapiens, UniProt P18075); assay: as above; settings: ligand BMP7, Table 14
T9 sequence (P18075 293-431): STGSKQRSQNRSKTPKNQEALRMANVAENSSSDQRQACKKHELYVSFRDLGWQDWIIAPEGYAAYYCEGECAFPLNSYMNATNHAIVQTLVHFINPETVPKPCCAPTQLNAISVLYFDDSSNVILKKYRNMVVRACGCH
Method: as §1

[10] = molecular target: T10, BMP6 (Homo sapiens, UniProt P22004); assay: as above; settings: ligand BMP6, Table 14
T10 sequence (P22004 375-513): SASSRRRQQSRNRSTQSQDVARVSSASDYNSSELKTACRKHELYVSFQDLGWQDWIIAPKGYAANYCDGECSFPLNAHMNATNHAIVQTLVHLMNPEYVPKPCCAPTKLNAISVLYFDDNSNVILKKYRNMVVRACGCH
Method: as §1

[11] = molecular target: T11, GDF8 (Homo sapiens, UniProt O14793); assay: as above; settings: ligand GDF8, Table 14
T11 sequence (O14793 267-375): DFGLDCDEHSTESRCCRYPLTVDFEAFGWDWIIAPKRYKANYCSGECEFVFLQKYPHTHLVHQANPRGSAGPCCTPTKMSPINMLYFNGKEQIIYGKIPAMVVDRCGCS
Method: as §1

[12] = molecular target: T11, GDF8; assay: Similar Biacore binding assay (Example 1)
[13] = Pharmacokinetic studies in rats; format: in vivo
Method: The ActRIIA-hFc was very stable in pharmacokinetic studies. Rats were dosed with 1 mg/kg, 3 mg/kg, or 10 mg/kg of ActRIIA-hFc protein, and plasma levels of the protein were measured at 24, 48, 72, 144 and 168 hours. In a separate study, rats were dosed at 1 mg/kg, 10 mg/kg, or 30 mg/kg.

[14] = molecular target: T8, activin B; assay: Similar Biacore binding assay (Example 1)
[15] = molecular target: T4, BMP10; assay: Similar Biacore binding assay (Example 1)
[16] = Pharmacokinetics in cynomolgus monkeys; format: in vivo
[17] = molecular target: T10, BMP6; assay: Similar Biacore binding assay (Example 1)
[18] = initial administration of 1 mg/kg
[19] = initial administration of 10 mg/kg

Row | ka [1] | kd [1] | ka [2] | kd [2] | kd ([4]; ligand BMP10, Table 14) | ka [5] | kd [5] | ka [6] | kd [6] | ka [7] | kd [7] | ka [8] | kd [8] | ka [9] | kd [9] | ka [10] | kd [10] | ka [11] | kd [11] | Substance | activin B binding [8] | further results
1 | 1.5e+06 M⁻¹ s⁻¹ | 0.0036 s⁻¹ | 2.8e+07 M⁻¹ s⁻¹ | 0.00026 s⁻¹ | 0.0025 s⁻¹ | 2.2e+07 M⁻¹ s⁻¹ | 0.0079 s⁻¹ | 7.3e+07 M⁻¹ s⁻¹ | 0.00092 s⁻¹ | 1.4e+07 M⁻¹ s⁻¹ | 0.00062 s⁻¹ | 1.1e+07 M⁻¹ s⁻¹ | 0.00011 s⁻¹ | 8.9e+06 M⁻¹ s⁻¹ | 0.033 s⁻¹ | 2.7e+08 M⁻¹ s⁻¹ | 0.022 s⁻¹ | 1.4e+06 M⁻¹ s⁻¹ | 0.0014 s⁻¹ | ActRIIA-Fc homodimer: ActRIIA-Fc homodimeric complex used as comparator in Example 17 | highest affinity | kd [3]: Transient*; ka ([4]; ligand BMP10, Table 14): 2.9e+07 M⁻¹ s⁻¹
2 | – | – | – | – | – | – | – | – | – | – | – | – | – | – | – | – | – | – | – | ActRIIA-hFc: extracellular domain of human ActRIIa fused to a human Fc domain with a minimal linker; homodimer | – | affinity for GDF8 [12]: high to moderate affinity; serum half-life [13]: 11 to 14 days; circulating levels of the drug after two weeks [13, 18]: 11 µg/mL; circulating levels of the drug after two weeks [13, 19]: 110 µg/mL; affinity for activin B [14]: high to moderate affinity; affinity for BMP10 [15]: high to moderate affinity; plasma half-life [16]: greater than 14 days; circulating levels of the drug [16, 18]: 25 µg/mL; circulating levels of the drug [16, 19]: 304 µg/mL; circulating levels of the drug ([16]; initial administration of 30 mg/kg): 1440 µg/mL; affinity for BMP6 [17]: high to moderate affinity
3 | 4.9e+07 M⁻¹ s⁻¹ | 0.0048 s⁻¹ | 1.8e+07 M⁻¹ s⁻¹ | 0.00023 s⁻¹ | Transient* | 3.2e+06 M⁻¹ s⁻¹ | 0.00054 s⁻¹ | 3e+07 M⁻¹ s⁻¹ | 0.00065 s⁻¹ | 7.4e+06 M⁻¹ s⁻¹ | 0.00024 s⁻¹ | 9.5e+06 M⁻¹ s⁻¹ | 0.00048 s⁻¹ | 2e+07 M⁻¹ s⁻¹ | 0.072 s⁻¹ | 5.4e+06 M⁻¹ s⁻¹ | 0.012 s⁻¹ | 1.8e+07 M⁻¹ s⁻¹ | 0.0028 s⁻¹ | ActRIIA-Fc:ALK4-Fc heterodimer: soluble heteromeric complex of extracellular domains of human ActRIIA and human ALK4, each separately fused to an Fc domain with a linker | reduced affinity (albeit still within the high-affinity range) | activin AB binding ([2]; Example 17): strong binding; KD [3]: No binding; BMP10 binding ([4]; Example 17): markedly reduced binding; activin AC binding ([5]; Example 17): particularly enhanced binding; GDF11 binding ([6]; Example 17): strong binding; activin A binding ([7]; Example 17): enhanced binding
